The record followed here is US20040258656, “High affinity TGFbeta nucleic acid ligands and inhibitors” (published 2004).

B1: ChD70-m11 (ssRNA)
RNA: GGGUGCCUUUUGCCUAGGUUGUGAUUUGUAACCUUCUGCCCA
modifications: 2'-OMe at 17, 21, 23-24, 28
B2: ChD70-m15 (ssRNA)
RNA: B1 RNA
modifications: 2'-OMe at 21, 23-24, 28, 38
B3: ChD70-m12 (ssRNA)
RNA: B1 RNA
modifications: 2'-OMe at 18, 21, 23-24, 28
B4: ChD70-m14 (ssRNA)
RNA: B1 RNA
modifications: 2'-OMe at 21, 23-24, 28, 31
B5: ChD70-m16 (ssRNA)
RNA: B1 RNA
modifications: 2'-OMe at 21, 23-24, 28, 42
B6: ChD70-m18 (ssRNA)
RNA: B1 RNA
modifications: 2'-OMe at 1-3, 16-18, 21, 23-24, 28, 30, 42; 3'-3' U cap
B7: NX22426 (ssRNA)
RNA: GGAGAUAUUACAGAGUCUGUAUAGCUGUACUCC
modifications: 2'-F C and U; 2'-OMe at lowercase a,g of ggaga-UAUUaCagagUCUgUAUAgCUgUaCucc with G of CUGUAUA 2'-OH; 3'-3' dT
B8: NX22427 (ssRNA)
RNA: GGGGUUAUUACAGAGUCUGUAUAGCUGUACCC
modifications: 2'-F C and U; 2'-OMe at lowercase a,g of gg-ggUUAUUaCagagUCUGUAUAgCUgUaC-CC; 3'-3' dT
B9: NX22356 (ssRNA)
RNA: GGAGGUUAUUACAGAGUCUGUAUAGCUGUACUCC
modifications: 2'-F C and U; 2'-OMe at lowercase a,g of ggagGUUAUUACAGAGUCUGUAUAGCuGUACUCC; 3'-3' dT
B10: NX22357 (ssRNA)
RNA: B9 RNA
modifications: 2'-F C and U; 2'-OMe at lowercase a,g of GGAGgUUaUUaCAGAGUCUGUAUAGCUGUACUCC; 3'-3' dT
B11: NX22360 (ssRNA)
RNA: B9 RNA
modifications: 2'-F C and U; 2'-OMe at lowercase a,g of GGAGGUUAUUACAGAGUCUGUAUAgCUgUaCUCC; 3'-3' dT
B12: NX22377 (ssRNA)
RNA: B9 RNA
modifications: 2'-F C and U; 2'-OMe at lowercase a,g of ggaggUUaUUaCAGAGUCUGUAUAgCUgUaCucc; 3'-3' dT
B13: NX22420 (ssRNA)
RNA: B9 RNA
modifications: 2'-F C and U; 2'-OMe at all purines except A8, G20, A22, A24; 3'-3' dT
B14: NX22421 (ssRNA)
RNA: B9 RNA
modifications: 2'-F C and U; 2'-OMe at all purines except G5, A8, A11, G20, A22, A24; 3'-3' dT
B15: NX22358 (ssRNA)
RNA: B9 RNA
modifications: 2'-F C and U; 2'-OMe at lowercase a,g of GGAGGUUAUUACagagUCUGUAUAGCUGUACUCC; 3'-3' dT
B16: NX22417 (ssRNA)
RNA: B9 RNA
modifications: 2'-F C and U; 2'-OMe at all purines except G20, A22, A24; 3'-3' dT
B17: 14i-1(ML-87) (ssRNA)
RNA: GGGAGGAUGCGGAAGUAACGUUGUAGU
modifications: 2'-F C and U
B18: 14i-1t5-41 (ssRNA)
RNA: GGGAGGAUGCGGAAGUAACGUUGUAGUAAAAUUCCUUC
modifications: 2'-F C and U
B19: 14i-1t5-38 (ssRNA)
RNA: GGGAGGAUGCGGAAGUAACGUUGUAGUAAAAUUCC
modifications: 2'-F C and U
B20: 14i-1t5-35 (ssRNA)
RNA: GGGAGGAUGCGGAAGUAACGUUGUAGUAAAAU
modifications: 2'-F C and U
B21: 14i-1Δ5',3' (ssRNA)
RNA: GGAAGUAACGUUGUAGUAAAAUUCGUUCUCUCGGCAUUUGGCCA
modifications: 2'-F C and U
B22: 14i-1(ML-86) (ssRNA)
RNA: GGGAGGAUGCGGAAGUAACGUUGUAGUUCCUUC
modifications: 2'-F C and U

The target in one data set is TGFβ1 (transforming growth factor beta 1) (Homo sapiens, UniProt P01137 SEQ:1-112). The data set can be described thus: CD70 parent +++. Conditions: chain copies: 2 (homodimer, inferred).
Sequence of TGFβ1 (transforming growth factor beta 1) (P01137 279-390): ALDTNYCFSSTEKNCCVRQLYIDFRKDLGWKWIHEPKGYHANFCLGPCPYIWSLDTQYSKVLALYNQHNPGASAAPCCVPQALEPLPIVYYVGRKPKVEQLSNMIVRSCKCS
With B1, the binding result is listed as “binds”.
B2: the binding result is reported as “binds”.
On the same count and under the same terms, to B3 belongs “binds”; to B4, “binds”; to B5, “binds”.
On to B6, for which the binding result was “binds”.

A further data set concerns the target T1, TGFβ2 (transforming growth factor beta 2) (Homo sapiens, UniProt P61812 SEQ:1-112).
T1 sequence: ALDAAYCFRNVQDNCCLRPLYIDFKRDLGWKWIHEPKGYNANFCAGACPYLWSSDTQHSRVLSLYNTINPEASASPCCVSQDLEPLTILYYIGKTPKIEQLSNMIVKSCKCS
Nature of the data set: filter. Conditions: chain copies: 2 (inferred, homodimer).
With B7, the binding signal was 1 x Kd of NX22284.
Still for that read-out and setting: to B8 belongs 0.3 x Kd of NX22284; to B9, 1 x Kd of NX22284; to B10, 2 x Kd of NX22284.
On the same count and under the same terms, to B11 belongs 1 x Kd of NX22284; to B12, 1 x Kd of NX22284.
The same measure, in the same setting: to B13 belongs 1 x Kd of NX22284; to B14, 2 x Kd of NX22284.
Consider B15, for which the binding signal is 1 x Kd of NX22284.
Still for that read-out and setting: to B16 belongs 1 x Kd of NX22284.

For the next data set, the target named is T1, TGFβ2 (transforming growth factor beta …). Nature of the data set: filter. Conditions: chain copies: 2 (inferred, homodimer). This is another data set of the same source.
For B17, the binding signal was > 100 x Kd of 14i-1.
The same measure, in the same setting: with B18 the figure was 1 x Kd of 14i-1; with B19, > 100 x Kd of 14i-1; with B20, > 100 x Kd of 14i-1.
Same read-out and setting: with B21 the figure was > 100 x Kd of 14i-1.
Same read-out and setting: with B22 the figure was > 100 x Kd of 14i-1.
